Test results as given in patent US20240182536A1 (MURAL ONCOLOGY, published 2024).
Positions count from the first letter of the chain named. Numbers in names are those of the source.

T1: interleukin 18 binding protein (IL-18BP) (UniProt O95998 31-194)
T1 sequence (looked up): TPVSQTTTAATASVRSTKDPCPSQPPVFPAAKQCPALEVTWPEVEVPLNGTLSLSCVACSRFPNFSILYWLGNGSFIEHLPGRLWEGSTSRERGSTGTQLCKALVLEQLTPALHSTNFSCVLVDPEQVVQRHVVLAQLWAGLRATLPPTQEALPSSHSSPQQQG

T2: IL-18 receptors on HEK-Blue IL-18 reporter cells (UniProt Q13478 19-541; O95256 20-599, limits assumed)
T2 sequence (looked up) 1: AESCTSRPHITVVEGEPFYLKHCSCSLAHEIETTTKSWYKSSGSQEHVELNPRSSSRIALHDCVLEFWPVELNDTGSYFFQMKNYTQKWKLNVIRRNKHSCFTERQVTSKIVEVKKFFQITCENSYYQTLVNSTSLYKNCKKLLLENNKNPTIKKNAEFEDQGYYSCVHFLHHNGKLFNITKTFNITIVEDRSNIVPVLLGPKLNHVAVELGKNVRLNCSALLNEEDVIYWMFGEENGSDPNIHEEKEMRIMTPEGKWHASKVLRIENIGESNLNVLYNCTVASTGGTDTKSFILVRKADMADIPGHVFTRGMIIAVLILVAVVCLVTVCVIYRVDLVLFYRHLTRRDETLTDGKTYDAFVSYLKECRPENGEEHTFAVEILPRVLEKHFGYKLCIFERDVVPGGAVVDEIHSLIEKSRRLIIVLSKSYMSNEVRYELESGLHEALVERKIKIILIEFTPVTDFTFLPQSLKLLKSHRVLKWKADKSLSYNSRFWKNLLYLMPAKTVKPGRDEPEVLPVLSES
T2 sequence (looked up) 2: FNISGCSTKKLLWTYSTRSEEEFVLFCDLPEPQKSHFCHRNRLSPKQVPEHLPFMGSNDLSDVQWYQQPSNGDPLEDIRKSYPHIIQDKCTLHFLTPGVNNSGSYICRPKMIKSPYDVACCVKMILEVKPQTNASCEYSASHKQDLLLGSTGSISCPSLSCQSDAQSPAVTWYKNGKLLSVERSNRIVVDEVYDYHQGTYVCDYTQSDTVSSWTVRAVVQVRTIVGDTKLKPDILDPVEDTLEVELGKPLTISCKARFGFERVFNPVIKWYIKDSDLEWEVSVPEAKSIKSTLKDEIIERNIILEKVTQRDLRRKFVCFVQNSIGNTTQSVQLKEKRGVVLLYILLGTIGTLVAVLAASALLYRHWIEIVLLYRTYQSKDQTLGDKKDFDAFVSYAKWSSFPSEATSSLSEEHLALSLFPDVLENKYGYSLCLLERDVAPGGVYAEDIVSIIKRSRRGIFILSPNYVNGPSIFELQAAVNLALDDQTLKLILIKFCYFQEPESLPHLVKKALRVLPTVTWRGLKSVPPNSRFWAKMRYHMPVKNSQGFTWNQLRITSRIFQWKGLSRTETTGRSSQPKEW

T3: IL-18 receptors on HEK-Blue IL-18 reporter cells (UniProt Q13478 19-541; O95256 20-599, limits assumed)
T3 sequence (looked up) 1: T2 sequence (looked up) 1
T3 sequence (looked up) 2: T2 sequence (looked up) 2

T4: human IL-18 binding protein (human, UniProt O95998 31-194)
T4 sequence (looked up): T1 sequence (looked up)

B1: IL-18 variant S36Q, D40T, K53P, S55L (ligand)
chain: YFGKLESKLSVIRNLNDQVLFIDQGNRPLFEDMTDQDMRTNAPRTIFIISMYPDLQPRGMAVTISVKSEKISTLSSENKIISFKEMNPPDNIKDTKSDIIFFQRSVPGHDNKMQFESSSYEGYFLASEKERDLFKLILKKEDELGDRSIMFTVQNED
B2: IL-18 variant T34E, S36P, D40A, N41G, K53T, S55R (ligand)
chain: B1 chain with T34E, Q36P, T40A, N41G, P53T, L55R
B3: IL-18 variant K53H, S55Y (ligand)
chain: B1 chain with Q36S, T40D, P53H, L55Y
B4: IL-18 variant S36E, D37E, D40V, N41S, K53Y, S55V, H109Y (ligand)
chain: B1 chain with Q36E, D37E, T40V, N41S, P53Y, L55V, H109Y
B5: IL-18 variant K8R, L9G, S10C, K53G, S55A, R104G (ligand)
chain: B1 chain with K8R, L9G, S10C, Q36S, T40D, P53G, L55A, R104G
B6: IL-18 variant T34N, S36N, D40E, N41G, K53S, S55Q, R104N, H109Y (ligand)
chain: B1 chain with T34N, Q36N, T40E, N41G, P53S, L55Q, R104N, H109Y
B7: IL-18 variant S36F, N41E, K53W (ligand)
chain: B1 chain with Q36F, T40D, N41E, P53W, L55S
B8: IL-18 variant T34S, S36Y, D37N, D40E, N41Q, K53Y, S55I (ligand)
chain: B1 chain with T34S, Q36Y, D37N, T40E, N41Q, P53Y, L55I
B9: yeast display IL-18 variant K53S, S55K (ligand)
chain: B1 chain with Q36S, T40D, P53S, L55K
B10: yeast display IL-18 variant K53T, S55P (ligand)
chain: B1 chain with Q36S, T40D, P53T, L55P
B11: yeast display IL-18 variant K53T, S55A (ligand)
chain: B1 chain with Q36S, T40D, P53T, L55A
B12: yeast display IL-18 variant K53S, S55Y (ligand)
chain: B1 chain with Q36S, T40D, P53S, L55Y
B13: yeast display IL-18 variant K53T, S55M, R58K (ligand)
chain: B1 chain with Q36S, T40D, P53T, L55M, R58K
B14: yeast display IL-18 variant L5W, I22M, K53N, S55Y, Q56H (ligand)
chain: B1 chain with L5W, I22M, Q36S, T40D, P53N, L55Y, Q56H
B15: yeast display IL-18 variant K53S, S55G (ligand)
chain: B1 chain with Q36S, T40D, P53S, L55G
B16: yeast display IL-18 variant S36E, D37E, D40K, N41T, K53T, S55Q, R104H (ligand)
chain: B1 chain with Q36E, D37E, T40K, N41T, P53T, L55Q, R104H

Each binder was assayed against T1, interleukin 18 binding protein (IL-18BP) (assay: cell-based or functional assay).

| Binder | HEK-Blue activity, +100 nM BP, DF-10000 | HEK-Blue activity, +100 nM BP, DF-100,000 | HEK-Blue activity, +100 nM BP, DF-1,000,000 | Ratio (-BP/+BP), DF-10000 | Ratio (-BP/+BP), DF-100,000 | Ratio (-BP/+BP), DF-1,000,000 |
| --- | --- | --- | --- | --- | --- | --- |
| B1 | 0.09 | 0.09 | 0.09 | 1.09 | 1.44 | 0.9 |
| B2 | 0.1 | 0.09 | 0.09 | 0.98 | 1.01 | 0.96 |
| B3 | 0.1 | 0.1 | 0.11 | 0.91 | 0.99 | 0.8 |
| B4 | 0.09 | 0.1 | 0.1 | 1.03 | 0.92 | 0.89 |
| B5 | 0.12 | 0.14 | 0.1 | 0.88 | 0.92 | 1.03 |
| B6 | 0.09 | 0.09 | 0.09 | 0.95 | 1.01 | 0.95 |
| B7 | 0.09 | 0.1 | 0.09 | 1 | 1.01 | 0.91 |
| B8 | 0.09 | 0.09 | 0.12 | 0.98 | 0.96 | 0.75 |

These binders were tested against T2, IL-18 receptors on HEK-Blue IL-18 … (assay: cell-based or functional assay).

| Binder | HEK-Blue activity, No BP, DF-10000 | HEK-Blue activity, No BP, DF-100,000 | HEK-Blue activity, No BP, DF-1,000,000 |
| --- | --- | --- | --- |
| B1 | 0.09 | 0.13 | 0.08 |
| B2 | 0.09 | 0.1 | 0.09 |
| B3 | 0.09 | 0.09 | 0.09 |
| B4 | 0.09 | 0.09 | 0.09 |
| B5 | 0.1 | 0.13 | 0.1 |
| B6 | 0.09 | 0.09 | 0.08 |
| B7 | 0.09 | 0.1 | 0.09 |
| B8 | 0.09 | 0.09 | 0.09 |

The binders below were run against T3, IL-18 receptors on HEK-Blue IL-18 … (assay: cell-based or functional assay).

| Binder | HEK-Blue activity, No BP, DF-10000 | HEK-Blue activity, No BP, DF-100,000 | HEK-Blue activity, No BP, DF-1,000,000 |
| --- | --- | --- | --- |
| B9 | 2 | 1.35 | 0.5 |
| B10 | 1.42 | 0.59 | 0.16 |
| B11 | 1.8 | 0.96 | 0.29 |
| B12 | 1.41 | 0.54 | 0.19 |
| B13 | 0.78 | 0.2 | 0.12 |
| B14 | 0.75 | 0.21 | 0.13 |
| B15 | 1.71 | 0.91 | 0.3 |
| B16 | 0.81 | 0.22 | 0.17 |

The binders below were run against T4, human IL-18 binding protein (assay: cell-based or functional assay).

| Binder | HEK-Blue activity, +100 nM BP, DF-10000 | HEK-Blue activity, +100 nM BP, DF-100,000 | HEK-Blue activity, +100 nM BP, DF-1,000,000 | Ratio (-BP/+BP), DF-10000 | Ratio (-BP/+BP), DF-100,000 | Ratio (-BP/+BP), DF-1,000,000 |
| --- | --- | --- | --- | --- | --- | --- |
| B9 | 2.03 | 1.41 | 0.53 | 0.98 | 0.96 | 0.95 |
| B10 | 1.53 | 0.65 | 0.21 | 0.93 | 0.91 | 0.79 |
| B11 | 1.85 | 0.95 | 0.32 | 0.97 | 1 | 0.89 |
| B12 | 1.52 | 0.55 | 0.21 | 0.93 | 0.97 | 0.9 |
| B13 | 0.72 | 0.21 | 0.17 | 1.08 | 0.92 | 0.72 |
| B14 | 0.72 | 0.23 | 0.21 | 1.05 | 0.91 | 0.61 |
| B15 | 1.83 | 0.97 | 0.27 | 0.93 | 0.95 | 1.1 |
| B16 | 0.81 | 0.21 | 0.14 | 1 | 1.01 | 1.22 |
